Earlier results, collected in patent US10906951B2, “Modified natural killer cells and natural killer cell lines having increased cytotoxicity” (ONK THERAPEUTICS LIMITED, priority 2015, dated 2021).

B1: D218H: TRAIL DR4 variant, WO 2009/066174 (protein, UniProt P50591 1-281, looked up, variant D218H)
Tumor necrosis factor ligand …: MAMMEVQGGPSLGQTCVLIVIFTVLLQSLCVAVTYVYFTNELKQMQDKYSKSGIACFLKEDDSYWDPNDEESMNSPCWQVKWQLRQLVRKMILRTSEETISTVQEKQQNISPLVRERGPQRVAAHITGTRGRSNTLSSPNSKNEKALGRKINSWESSRSGHSFLSNLHLRNGELVIHEKGFYYIYSQTYFRFQEEIKENTKNDKQMVQYIYKYTSYPHPILLMKSARNSCWSKDAEYGLYSIYQGGIFELKENDRIFVSVTNEHLIDMDHEASFFGAFLVG
B2: K251Q: TRAIL DR4 variant, WO 2009/066174 (protein, UniProt P50591 1-281, looked up, variant K251Q)
Tumor necrosis factor ligand …: MAMMEVQGGPSLGQTCVLIVIFTVLLQSLCVAVTYVYFTNELKQMQDKYSKSGIACFLKEDDSYWDPNDEESMNSPCWQVKWQLRQLVRKMILRTSEETISTVQEKQQNISPLVRERGPQRVAAHITGTRGRSNTLSSPNSKNEKALGRKINSWESSRSGHSFLSNLHLRNGELVIHEKGFYYIYSQTYFRFQEEIKENTKNDKQMVQYIYKYTSYPDPILLMKSARNSCWSKDAEYGLYSIYQGGIFELQENDRIFVSVTNEHLIDMDHEASFFGAFLVG
B3: S215H: TRAIL DR4 variant, WO 2009/066174 (protein, UniProt P50591 1-281, looked up, variant S215H)
Tumor necrosis factor ligand …: MAMMEVQGGPSLGQTCVLIVIFTVLLQSLCVAVTYVYFTNELKQMQDKYSKSGIACFLKEDDSYWDPNDEESMNSPCWQVKWQLRQLVRKMILRTSEETISTVQEKQQNISPLVRERGPQRVAAHITGTRGRSNTLSSPNSKNEKALGRKINSWESSRSGHSFLSNLHLRNGELVIHEKGFYYIYSQTYFRFQEEIKENTKNDKQMVQYIYKYTHYPDPILLMKSARNSCWSKDAEYGLYSIYQGGIFELKENDRIFVSVTNEHLIDMDHEASFFGAFLVG
B4: R149N: TRAIL DR4 variant, WO 2009/066174 (protein, UniProt P50591 1-281, looked up, variant R149N)
Tumor necrosis factor ligand …: MAMMEVQGGPSLGQTCVLIVIFTVLLQSLCVAVTYVYFTNELKQMQDKYSKSGIACFLKEDDSYWDPNDEESMNSPCWQVKWQLRQLVRKMILRTSEETISTVQEKQQNISPLVRERGPQRVAAHITGTRGRSNTLSSPNSKNEKALGNKINSWESSRSGHSFLSNLHLRNGELVIHEKGFYYIYSQTYFRFQEEIKENTKNDKQMVQYIYKYTSYPDPILLMKSARNSCWSKDAEYGLYSIYQGGIFELKENDRIFVSVTNEHLIDMDHEASFFGAFLVG
B5: S159R: TRAIL DR4 variant, WO 2009/066174 (protein, UniProt P50591 1-281, looked up, variant S159R)
Tumor necrosis factor ligand …: MAMMEVQGGPSLGQTCVLIVIFTVLLQSLCVAVTYVYFTNELKQMQDKYSKSGIACFLKEDDSYWDPNDEESMNSPCWQVKWQLRQLVRKMILRTSEETISTVQEKQQNISPLVRERGPQRVAAHITGTRGRSNTLSSPNSKNEKALGRKINSWESSRRGHSFLSNLHLRNGELVIHEKGFYYIYSQTYFRFQEEIKENTKNDKQMVQYIYKYTSYPDPILLMKSARNSCWSKDAEYGLYSIYQGGIFELKENDRIFVSVTNEHLIDMDHEASFFGAFLVG
B6: S215D: TRAIL DR4 variant, WO 2009/066174 (protein, UniProt P50591 1-281, looked up, variant S215D)
Tumor necrosis factor ligand …: MAMMEVQGGPSLGQTCVLIVIFTVLLQSLCVAVTYVYFTNELKQMQDKYSKSGIACFLKEDDSYWDPNDEESMNSPCWQVKWQLRQLVRKMILRTSEETISTVQEKQQNISPLVRERGPQRVAAHITGTRGRSNTLSSPNSKNEKALGRKINSWESSRSGHSFLSNLHLRNGELVIHEKGFYYIYSQTYFRFQEEIKENTKNDKQMVQYIYKYTDYPDPILLMKSARNSCWSKDAEYGLYSIYQGGIFELKENDRIFVSVTNEHLIDMDHEASFFGAFLVG
B7: Y189Q/R191K/Q193R/H264R/I266L/D267Q: TRAIL DR4 variant, MacFarlane 2005 (protein, UniProt P50591 1-281, looked up, variant Y189Q R191K Q193R H264R I266L D267Q)
Tumor necrosis factor ligand …: MAMMEVQGGPSLGQTCVLIVIFTVLLQSLCVAVTYVYFTNELKQMQDKYSKSGIACFLKEDDSYWDPNDEESMNSPCWQVKWQLRQLVRKMILRTSEETISTVQEKQQNISPLVRERGPQRVAAHITGTRGRSNTLSSPNSKNEKALGRKINSWESSRSGHSFLSNLHLRNGELVIHEKGFYYIYSQTQFKFREEIKENTKNDKQMVQYIYKYTSYPDPILLMKSARNSCWSKDAEYGLYSIYQGGIFELKENDRIFVSVTNERLLQMDHEASFFGAFLVG
B8: G131K: TRAIL DR4 variant, WO 2009/066174 (protein, UniProt P50591 1-281, looked up, variant G131K)
Tumor necrosis factor ligand …: MAMMEVQGGPSLGQTCVLIVIFTVLLQSLCVAVTYVYFTNELKQMQDKYSKSGIACFLKEDDSYWDPNDEESMNSPCWQVKWQLRQLVRKMILRTSEETISTVQEKQQNISPLVRERGPQRVAAHITGTRKRSNTLSSPNSKNEKALGRKINSWESSRSGHSFLSNLHLRNGELVIHEKGFYYIYSQTYFRFQEEIKENTKNDKQMVQYIYKYTSYPDPILLMKSARNSCWSKDAEYGLYSIYQGGIFELKENDRIFVSVTNEHLIDMDHEASFFGAFLVG
B9: Q193H: TRAIL DR4 variant, WO 2009/066174 (protein, UniProt P50591 1-281, looked up, variant Q193H)
Tumor necrosis factor ligand …: MAMMEVQGGPSLGQTCVLIVIFTVLLQSLCVAVTYVYFTNELKQMQDKYSKSGIACFLKEDDSYWDPNDEESMNSPCWQVKWQLRQLVRKMILRTSEETISTVQEKQQNISPLVRERGPQRVAAHITGTRGRSNTLSSPNSKNEKALGRKINSWESSRSGHSFLSNLHLRNGELVIHEKGFYYIYSQTYFRFHEEIKENTKNDKQMVQYIYKYTSYPDPILLMKSARNSCWSKDAEYGLYSIYQGGIFELKENDRIFVSVTNEHLIDMDHEASFFGAFLVG
B10: R149M: TRAIL DR4 variant, WO 2009/066174 (protein, UniProt P50591 1-281, looked up, variant R149M)
Tumor necrosis factor ligand …: MAMMEVQGGPSLGQTCVLIVIFTVLLQSLCVAVTYVYFTNELKQMQDKYSKSGIACFLKEDDSYWDPNDEESMNSPCWQVKWQLRQLVRKMILRTSEETISTVQEKQQNISPLVRERGPQRVAAHITGTRGRSNTLSSPNSKNEKALGMKINSWESSRSGHSFLSNLHLRNGELVIHEKGFYYIYSQTYFRFQEEIKENTKNDKQMVQYIYKYTSYPDPILLMKSARNSCWSKDAEYGLYSIYQGGIFELKENDRIFVSVTNEHLIDMDHEASFFGAFLVG
B11: R149I: TRAIL DR4 variant, WO 2009/066174 (protein, UniProt P50591 1-281, looked up, variant R149I)
Tumor necrosis factor ligand …: MAMMEVQGGPSLGQTCVLIVIFTVLLQSLCVAVTYVYFTNELKQMQDKYSKSGIACFLKEDDSYWDPNDEESMNSPCWQVKWQLRQLVRKMILRTSEETISTVQEKQQNISPLVRERGPQRVAAHITGTRGRSNTLSSPNSKNEKALGIKINSWESSRSGHSFLSNLHLRNGELVIHEKGFYYIYSQTYFRFQEEIKENTKNDKQMVQYIYKYTSYPDPILLMKSARNSCWSKDAEYGLYSIYQGGIFELKENDRIFVSVTNEHLIDMDHEASFFGAFLVG
B12: S215K: TRAIL DR4 variant, WO 2009/066174 (protein, UniProt P50591 1-281, looked up, variant S215K)
Tumor necrosis factor ligand …: MAMMEVQGGPSLGQTCVLIVIFTVLLQSLCVAVTYVYFTNELKQMQDKYSKSGIACFLKEDDSYWDPNDEESMNSPCWQVKWQLRQLVRKMILRTSEETISTVQEKQQNISPLVRERGPQRVAAHITGTRGRSNTLSSPNSKNEKALGRKINSWESSRSGHSFLSNLHLRNGELVIHEKGFYYIYSQTYFRFQEEIKENTKNDKQMVQYIYKYTKYPDPILLMKSARNSCWSKDAEYGLYSIYQGGIFELKENDRIFVSVTNEHLIDMDHEASFFGAFLVG
B13: K251E: TRAIL DR4 variant, WO 2009/066174 (protein, UniProt P50591 1-281, looked up, variant K251E)
Tumor necrosis factor ligand …: MAMMEVQGGPSLGQTCVLIVIFTVLLQSLCVAVTYVYFTNELKQMQDKYSKSGIACFLKEDDSYWDPNDEESMNSPCWQVKWQLRQLVRKMILRTSEETISTVQEKQQNISPLVRERGPQRVAAHITGTRGRSNTLSSPNSKNEKALGRKINSWESSRSGHSFLSNLHLRNGELVIHEKGFYYIYSQTYFRFQEEIKENTKNDKQMVQYIYKYTSYPDPILLMKSARNSCWSKDAEYGLYSIYQGGIFELEENDRIFVSVTNEHLIDMDHEASFFGAFLVG
B14: R149K: TRAIL DR4 variant, WO 2009/066174 (protein, UniProt P50591 1-281, looked up, variant R149K)
Tumor necrosis factor ligand …: MAMMEVQGGPSLGQTCVLIVIFTVLLQSLCVAVTYVYFTNELKQMQDKYSKSGIACFLKEDDSYWDPNDEESMNSPCWQVKWQLRQLVRKMILRTSEETISTVQEKQQNISPLVRERGPQRVAAHITGTRGRSNTLSSPNSKNEKALGKKINSWESSRSGHSFLSNLHLRNGELVIHEKGFYYIYSQTYFRFQEEIKENTKNDKQMVQYIYKYTSYPDPILLMKSARNSCWSKDAEYGLYSIYQGGIFELKENDRIFVSVTNEHLIDMDHEASFFGAFLVG
B15: K251D: TRAIL DR4 variant, WO 2009/066174 (protein, UniProt P50591 1-281, looked up, variant K251D)
Tumor necrosis factor ligand …: MAMMEVQGGPSLGQTCVLIVIFTVLLQSLCVAVTYVYFTNELKQMQDKYSKSGIACFLKEDDSYWDPNDEESMNSPCWQVKWQLRQLVRKMILRTSEETISTVQEKQQNISPLVRERGPQRVAAHITGTRGRSNTLSSPNSKNEKALGRKINSWESSRSGHSFLSNLHLRNGELVIHEKGFYYIYSQTYFRFQEEIKENTKNDKQMVQYIYKYTSYPDPILLMKSARNSCWSKDAEYGLYSIYQGGIFELDENDRIFVSVTNEHLIDMDHEASFFGAFLVG
B16: D269H: TRAIL variant, Van der Sloot 2006 (protein, UniProt P50591 1-281, looked up, variant D269H)
Tumor necrosis factor ligand …: MAMMEVQGGPSLGQTCVLIVIFTVLLQSLCVAVTYVYFTNELKQMQDKYSKSGIACFLKEDDSYWDPNDEESMNSPCWQVKWQLRQLVRKMILRTSEETISTVQEKQQNISPLVRERGPQRVAAHITGTRGRSNTLSSPNSKNEKALGRKINSWESSRSGHSFLSNLHLRNGELVIHEKGFYYIYSQTYFRFQEEIKENTKNDKQMVQYIYKYTSYPDPILLMKSARNSCWSKDAEYGLYSIYQGGIFELKENDRIFVSVTNEHLIDMHHEASFFGAFLVG

Biological target: DR4 (Homo sapiens, UniProt O00220)
Conditions: in words; known from WO 2009/066174, MacFarlane 2005; cited from earlier work

Affinity for DR4, increased affinity for DR4:
B1
B2
B3
B4
B5
B6
B8
B9
B10
B11
B12
B13
B14
B15

Affinity for DR4, DR4 variants:
B7

Biological target: DR5 (Homo sapiens, UniProt O14763)
Conditions: in words; known from WO 2009/077857, Van der Sloot 2006, MacFarlane 2005, WO 01/00832; cited from earlier work

Affinity for DR5, increased affinity for DR5:
B16
